Experiments:
endogenous p65 mRNA = assay: Northern blot analysis of endogenous p65 mRNA in clonal cells expressing p65DN; format: cell-based, human; settings: cell clones expressing p65DN
Description: (§1) Cell culture, Transfection and Clonal Selections: Human head and neck squamous carcinoma cells (SCC-35) were used for the experiments described. These cells have been previously characterized as resistant to ionizing radiation based on clinical and radiobiological parameters (30). Cells were cultured in 10 cm^2 dishes and maintained in Dulbeco modified Eagle's medium supplemented with 10% fetal bovine serum, 2 mML-amino acids. Cells were passaged routinely at 80-90% confluence and checked for mycoplasma contamination at three-month intervals. […] G418 resistant clonal cells were then subcloned and maintained in the complete medium containing G418 (400 μg/ml) as described above. Drug resistant colonies were pooled or subcloned for future studies.
RNA was electrophoresed on a 1% formaldehyde-agarose gel and then transferred to the nitrocellulose membrane, followed by UV cross-linking. The membrane was hybridized with γ-^32P-dATP labeled cDNA probes for 16 h, washed, and autoradiographed.
To investigate the effects of targeting p65 as a means of disrupting NF-κB activation, we transfected radioresistant human squamous carcinoma SCC-35 cells with an expression vector encoding amino acids 1 to 84 of human p65 (p65DN). The resulting G418-resistant colonies were isolated and analyzed for expression of p65DN and endogenous p65. […]

endogenous p65 protein = assay: Immunoblot analysis of endogenous p65 protein in DN/CL6 cells; format: cell-based, human; settings: DN/CL6 cells (SCC-35 clone expressing p65DN)
Description: as §1
Western blotting: Following exposure to γ-radiation (1-20 Gy) (a ^137Cs J. L. Shepherrd Mark 1 laboratory irradiator) or TNF-α (10 ng/ml) treatment, cell extracts were prepared by using lysis buffer (50 mM Tris-Cl, pH 7.5, 100 mM NaCl, 0.1% NP40, 1 mM PMSF, 10 mg/ml leupeptin, 1 mg/ml aprotinin, 1 mg/ml perpstatin), followed by centrifugation at 12,000×g for 20 minutes. Protein quantities were determined using the BCA protein assay kit (Pierce). Equal amounts of cell extracts were analyzed on 10% SDS-polyacrylamide gels. […]

IκB-α = assay: Immunoblot analysis of IR-induced IκB-α Ser32 phosphorylation/degradation and nuclear p65; format: cell-based, human; settings: DN/CL6 cells
Description: (§2) Western blotting: Following exposure to γ-radiation (1-20 Gy) (a ^137Cs J. L. Shepherrd Mark 1 laboratory irradiator) or TNF-α (10 ng/ml) treatment, cell extracts were prepared by using lysis buffer (50 mM Tris-Cl, pH 7.5, 100 mM NaCl, 0.1% NP40, 1 mM PMSF, 10 mg/ml leupeptin, 1 mg/ml aprotinin, 1 mg/ml perpstatin), followed by centrifugation at 12,000×g for 20 minutes. Protein quantities were determined using the BCA protein assay kit (Pierce). Equal amounts of cell extracts were analyzed on 10% SDS-polyacrylamide gels. The transblotted membranes were blocked in PBS containing 5% dry milk for 1 h and probed with specific antibodies, followed by washing with PBST. The membrane was then incubated with horse-radish peroxidase conjugated secondary antibodies for 30-60 minutes washed with PBST, and developed by using the ECL-chemiluminescence detection system (Amersham). Equal loading and transfer of proteins among lanes were confirmed by immunoblot analysis with antibodies to β-actin (Amersham) or by staining the membrane with Ponceau S. Other antibodies used in this study include anti-NF-κB(p65), IκB-α caspases-3, (Santa Cruz Biotechnology, Santa Cruz, Calif.) and PARP (Enzyme Synthesis, Dublin, Calif.).
IκB-α binds to both subunits of the p50-p65 heterodimer. We therefore next determined the effect of p65DN expression on IR-induced phosphorylation and subsequent degradation of IκB-αin the cytoplasm. […] This conclusion is consistent with the previous observation that amino acids 1 to 101 of p65 are required for its binding to IκB-α (36). We therefore propose that p65DN interferes with the inhibitory function of IκB-α by binding to this protein in both the cytoplasm and nucleus.

NF-κB = NF-κB luciferase reporter assay (pNF-κB-Luc); format: cell-based, human; settings: DN/CL6 vs SCC-35 cells; IR 20 Gy or TNF-α 10 ng/ml, 6 h
Description: Luciferase Reporter Assay: Cells were transiently transfected for 16 h with 5 μg/ml of plasmid DNA by using Lipofectin (Gibco-BRL). Following treatment with ionizing radiation (20 Gy) or TNF-α (10 ng/ml), cells were lysed at 6 h in Reporter Lysis Buffer (Promega), and centrifuged for 2 min at 14,000×g.
To determine whether p65DN inhibits the activation of NF-κB, we transfected DN/CL6 cells with the NF-κB-specific luciferase reporter vector pNF-κB-Luc and then examined the effect of IR or TNF-α on luciferase activity. The stimulatory effects of these agents on NF-κB activity were reduced by a factor of 2 to 3 in DN/CL6 cells compared with those apparent in SCC-35 cells (FIG. 2B). Expression of p65DN thus inhibited NF-κB activation.

SCC-35 cells [1] = assay: Radiation (clonogenic) survival assay; format: cell-based, human; settings: DN/CL6 cells
Description: Radiation survival assay: Clonogenic dose response was determined as previously described (32). Briefly, exponentially growing cells were plated in T-25 flasks and exposed to graded doses of ionizing radiation in a ^137Cs J. L. Shepherrd Mark 1 laboratory irradiator with a dose accuracy of ±5%. Physics support for calibration and quality assurance was provided for all experimental protocols. Colony counts were fit to single hit multitarget (SHMT) and the linear quadratic (L-Q) models (33). Data points were obtained from two to three independent experiments in triplicates for each experiment.
Impaired regulation of NF-κB in certain cell types is associated with intrinsic cellular radiosensitivity (14-16). To examine the role of NF-κB in determining cell sensitivity to radiation, we performed clonogenic survival assays after exposure of SCC-35 and DN/CL6 cells to graded doses of γ-radiation (FIG. 3). The sensitivity of DN/CL6 cells to IR was greater than that of the parental SCC-35 cells. According to the single-hit multitarget model (33), D0 values were determined to be 1.9 Gy (with α=0.16 and β=0.02) for SCC-35 cells and 1.2 Gy (with α=0.11 and β=0.06) for DN/CL6 cells. Because of the potential pitfalls of clonal heterogeneity associated with determination of radiation sensitivity in a clonal cell population, we also performed survival experiments with pooled transfected clones.

SCC-35 cells [2] = assay: Apoptotic index after γ-radiation; format: cell-based, human; settings: DN/CL6 cells
Source text: Apoptotic Index: Adherent and floating cells were collected at various times after exposure to various doses (1-20 Gy) of gamma radiation (a ^137Cs J. L. Shepherd Mark 1laboratory irradiator) and stained with acridine-orange and ethidium bromide (14). About 600 cells (˜100 cells per field) were scored for the aberrant chromosome organizations under flourescence microscopy. The apoptotic cells=(total number of cells with apoptotic nuclei/total number of cells counted)×100. All values represent the mean±SE of the experiments. All experiments were performed more than three times.
Activation of NF-κB contributes to the protection of many cell types from apoptotic cell death induced by DNA-damaging agents. However, under certain conditions and in certain cell types, activation of NF-κB induces apoptosis (37). Given that clonogenic survival analysis provides a measure of all types of cell death, we next determined the effect of p65DN expression on IR-induced apoptosis. IR induced a dose-dependent increase in the percentage of both SCC-35 and DN/CL6 cells characterized as apoptotic 48 h after irradiation (FIG. 4A). However, whereas the maximum proportion of apoptotic cells was 8% (evident at 20 Gy) for SCC-35 cells, confirming that apoptosis is not a major pathway of cell death in these cells, the maximum apoptotic index was 14% for DN/CL6 cells. The baseline apoptotic index for both cell lines was <1%.

PARP = PARP cleavage by immunoblot after γ-radiation; format: cell-based, human; settings: DN/CL6 cells
Description: as §2, with “Calif.). […]” for “Calif.).”

caspase-3 = biological target: T1, caspase-3 (Homo sapiens, UniProt P42574); assay: Caspase-3 activity, fluorogenic substrate assay after IR; format: cell-based; settings: DN/CL6 cells, IR 5 Gy
T1 construct: endogenous in cells; host or cells: lysates of SCC-35 and DN/CL6 cells after 5 Gy of IR
T1 sequence (P42574 29-175 limits assumed): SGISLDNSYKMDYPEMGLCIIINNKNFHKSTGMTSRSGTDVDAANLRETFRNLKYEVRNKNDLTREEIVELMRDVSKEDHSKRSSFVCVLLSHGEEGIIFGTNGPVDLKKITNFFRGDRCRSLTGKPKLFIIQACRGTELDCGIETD
Description: Measurement of caspase activities—The activity of caspases-3 was assayed fluorometrically with specific fluorogenic substrates: MOCAc-Asp-Glu-Val-Asp-Ala-Pro-Lys(DNP)-NH2 (Peptide Institute, Osaka, Japan) (34). Cell extracts (60 μg of protein) were incubated for 1 h at 37° C. with 600 nM substrate in a reaction mixture (500 μl) containing 10 mM Hepes-NaOH (pH 7.4), 40 mM P-glycerophosphate, 50 mM NaCl, 2 mM MgCl2, 5 mM EGTA, 1 mM DTT, 2 mM ATP, 10 mM creatine phosphate, and creatine kinase (50 μg/ml). The fluorescence of the cleaved substrates was measured with a Hitachi F-4500 spectrophotometer at excitation and emission wavelengths, respectively, of 328 and 393 nm for MOCAc-DEVDAPK(DNP)-NH2.
The nuclear enzyme poly(ADP-ribose) polymerase (PARP), which plays an important role in the repair of DNA damage and in maintenance of genomic integrity (38, 39), is specifically cleaved between its NH2-terminal DNA-binding domain and its multifunctional COOH-terminal domain by caspase-3 or a caspase-3—like protease early during the execution phase of apoptosis (40). We therefore examined the effects of p65DN on both the cleavage of PARP and caspase-3 activity. […] Exposure to 5 Gy of γ-radiation induced a substantial increase in PARP cleavage within 48 h in DN/CL6 cells, whereas cleavage of this enzyme remained barely detectable at 72 h in SCC-35 cells (FIG. 4C).

factor of reduction of stimulatory effects of IR or TNF-α on NF-κB (luciferase) activity (NF-κB): 2 to 3 | IR-induced activation of caspase-3 compared with SCC-35 cells (caspase-3): earlier and more pronounced activation
B1: p65DN: dominant negative fragment, amino acids 1 to 84 of human p65 (RelA), expressed from vector pCR3.1 in SCC-35 cells (clone DN/CL6) (protein)
chain: MDELFPLIFPAEPAQASGPYVEIIEQPKQRGMRFRYKCEGRSAGSIPGERSTDTTKTHPTIKINGYTGPGTVRISLVTKDPPHR
amount of endogenous p65 mRNA compared with parental SCC-35 cells (endogenous p65 mRNA): reduced | reduction of the amount of endogenous p65 protein compared with parental SCC-35 cells (endogenous p65 protein): 75% | amount of p65 in the nucleus after irradiation (IκB-α; IR): decrease | IR-induced phosphorylation of IκB-α on Ser32 (IκB-α; at 3 h after irradiation): remained markedly increased | time after irradiation without detectable degradation of IκB-α (IκB-α; parental cells degraded within 1 h): up to 3 h | α (SCC-35 cells [1]; clonogenic survival fit): 0.11 | β (SCC-35 cells [1]; clonogenic survival fit): 0.06 | D0 (SCC-35 cells [1]; single-hit multitarget model, graded γ-radiation doses): 1.2 Gy | time at which substantial increase in apoptotic index was apparent (SCC-35 cells [2]; 5 Gy γ-radiation): 24 h | maximum apoptotic index (SCC-35 cells [2]; 48 h after irradiation, 2-20 Gy): 14% | baseline apoptotic index (SCC-35 cells [2]; no irradiation): < 1% | time to substantial increase in PARP cleavage (PARP; 5 Gy γ-radiation): ≤ 48 h | γ-radiation dose resulting in PARP cleavage (PARP; data not shown): ≤ 2 Gy

Reference: patent US20050287158A1, “The p65 subunit of nf-kb for the radiosensitization of cells” (Georgetown University, priority 2002, published 2005)
